From PMC6800506

Molecular target: tau RD containing the disease-associated P301S substitution fused to either CFP or YFP (human) (UniProt P10636)
Test: FRET or BRET; HEK293T tau biosensor cells with up to 200 nM freshly prepared, oligomeric or fibrillar Aβ, no tau seeds, no transfection reagent; FRET by flow cytometry after 48 h and after 2 weeks

Substance: tau RD containing the disease-associated P301S substitution fused to either CFP or YFP (from UniProt P10636-8 244-372) (domain or fragment)
- integrated FRET density (IFD): < 10
